Measurements taken from IntAct's records for PubMed 18166655.

B1: Caspase drICE (Drosophila melanogaster (Fruit fly)), O01382 (parent)
chain: MDATNNGESADQVGIRVGNPEQPNDHTDALGSVGSGGAGSSGLVAGSSHPYGSGAIGQLANGYSSPSSSYRKNVAKMVTDRHAAEYNMRHKNRGMALIFNHEHFEVPTLKSRAGTNVDCENLTRVLKQLDFEVTVYKDCRYKDILRTIEYAASQNHSDSDCILVAILSHGEMGYIYAKDTQYKLDNIWSFFTANHCPSLAGKPKLFFIQACQGDRLDGGVTMQRSQTETDGDSSMSYKIPVHADFLIAYSTVPGFYSWRNTTRGSWFMQSLCAELAANGKRLDILTLLTFVCQRVAVDFESCTPDTPEMHQQKQIPCITTMLTRILRFSDKQLAPAGRV
partner: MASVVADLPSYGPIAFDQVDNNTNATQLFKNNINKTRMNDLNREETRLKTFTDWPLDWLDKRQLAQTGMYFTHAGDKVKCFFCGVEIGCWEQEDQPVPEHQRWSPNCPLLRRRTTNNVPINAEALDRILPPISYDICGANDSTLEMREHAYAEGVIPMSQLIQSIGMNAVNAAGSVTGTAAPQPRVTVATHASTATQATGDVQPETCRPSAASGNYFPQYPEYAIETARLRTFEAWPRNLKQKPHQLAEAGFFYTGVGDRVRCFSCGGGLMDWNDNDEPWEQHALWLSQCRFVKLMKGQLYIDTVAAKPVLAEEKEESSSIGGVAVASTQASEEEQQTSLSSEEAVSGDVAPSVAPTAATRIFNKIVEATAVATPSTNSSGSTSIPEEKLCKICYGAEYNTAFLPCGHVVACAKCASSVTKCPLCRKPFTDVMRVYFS
B2: Death-associated inhibitor of apoptosis 2 (Drosophila melanogaster (Fruit fly)), Q24307 (parent)
chain: MTELGMELESVRLATFGEWPLNAPVSAEDLVANGFFATGNWLEAECHFCHVRIDRWEYGDQVAERHRRSSPICSMVLAPNHCGNVPRSQESDNEGNSVVDSPESCSCPDLLLEANRLVTFKDWPNPNITPQALAKAGFYYLNRLDHVKCVWCNGVIAKWEKNDNAFEEHKRFFPQCPRVQMGPLIEFATGKNLDELGIQPTTLPLRPKYACVDARLRTFTDWPISNIQPASALAQAGLYYQKIGDQVRCFHCNIGLRSWQKEDEPWFEHAKWSPKCQFVLLAKGPAYVSEVLATTAANASSQPATAPAPTLQADVLMDEAPAKEALALGIDGGVVRNAIQRKLLSSGCAFSTLDELLHDIFDDAGAGAALEVREPPEPSAPFIEPCQATTSKAASVPIPVADSIPAKPQAAEAVANISKITDEIQKMSVATPNGNLSLEEENRQLKDARLCKVCLDEEVGVVFLPCGHLATCNQCAPSVANCPMCRADIKGFVRTFLS
partner: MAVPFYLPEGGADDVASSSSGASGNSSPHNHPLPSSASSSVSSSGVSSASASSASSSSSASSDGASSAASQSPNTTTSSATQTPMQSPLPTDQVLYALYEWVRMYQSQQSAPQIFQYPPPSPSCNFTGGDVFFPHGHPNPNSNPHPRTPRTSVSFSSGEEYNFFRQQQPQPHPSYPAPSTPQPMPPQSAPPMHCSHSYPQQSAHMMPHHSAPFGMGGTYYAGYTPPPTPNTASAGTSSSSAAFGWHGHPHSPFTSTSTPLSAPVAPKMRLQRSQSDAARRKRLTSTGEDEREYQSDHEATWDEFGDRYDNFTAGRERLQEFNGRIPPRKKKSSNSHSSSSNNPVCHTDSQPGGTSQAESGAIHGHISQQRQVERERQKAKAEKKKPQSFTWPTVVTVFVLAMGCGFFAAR
B3: Death-associated inhibitor of apoptosis 2 (Drosophila melanogaster (Fruit fly)), Q24307 (parent)
chain: B2 chain
partner: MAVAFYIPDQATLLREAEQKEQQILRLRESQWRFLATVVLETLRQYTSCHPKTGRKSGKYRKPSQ

Variants of: B1
Conditions: with diap1_drome Diap1, Q24306

Row | Variant | effect of a mutation on the interaction
1 | MDATNNGESADQVGIRVGNPEQPNDHTDALGSVGSGGAGSSGLVAGSSHPYGSGAIGQLANGYSSPSSSYRKNVAKMVTDRHAAEYNMRHKNRGMALIFNHEHFEVPTLKSRAGTNVDCENLTRVLKQLDFEVTVYKDCRYKDILRTIEYAASQNHSDSDCILVAILSHGEMGYIYAKDTQYKLDNIWSFFTANHCPSLAGKPKLFFIQAAQGDRLDGGVTMQRSQTETDGDSSMSYKIPVHADFLIAYSTVPGFYSWRNTTRGSWFMQSLCAELAANGKRLDILTLLTFVCQRVAVDFESCTPDTPEMHQQKQIPCITTMLTRILRFSDKQLAPAGRV [C211A] | with no effect

Variants of: B2
Conditions: with hid_drome hid

Row | Variant | effect of a mutation on the interaction
2 | MTELGMELESVRLATFGEWPLNAPVSAEDLVANGFFATGNWLEAEGHFCHVRIDRWEYGDQVAERHRRSSPICSMVLAPNHCGNVPRSQESDNEGNSVVDSPESCSCPDLLLEANRLVTFKDWPNPNITPQALAKAGFYYLNRLDHVKCVWCNGVIAKWEKNDNAFEEHKRFFPQCPRVQMGPLIEFATGKNLDELGIQPTTLPLRPKYACVDARLRTFTDWPISNIQPASALAQAGLYYQKIGDQVRCFHCNIGLRSWQKEDEPWFEHAKWSPKCQFVLLAKGPAYVSEVLATTAANASSQPATAPAPTLQADVLMDEAPAKEALALGIDGGVVRNAIQRKLLSSGCAFSTLDELLHDIFDDAGAGAALEVREPPEPSAPFIEPCQATTSKAASVPIPVADSIPAKPQAAEAVANISKITDEIQKMSVATPNGNLSLEEENRQLKDARLCKVCLDEEVGVVFLPCGHLATCNQCAPSVANCPMCRADIKGFVRTFLS [C46G] | with no effect

Variants of: B3
Conditions: with rpr_drome rpr

Row | Variant | effect of a mutation on the interaction
3 | MTELGMELESVRLATFGEWPLNAPVSAEDLVANGFFATGNWLEAECHFCHVRIDRWEYGDQVAERHRRSSPICSMVLAPNHCGNVPRSQESDNEGNSVVDSPESCSCPDLLLEANRLVTFKDWPNPNITPQALAKAGFYYLNRLDHVKGVWCNGVIAKWEKNDNAFEEHKRFFPQCPRVQMGPLIEFATGKNLDELGIQPTTLPLRPKYACVDARLRTFTDWPISNIQPASALAQAGLYYQKIGDQVRGFHCNIGLRSWQKEDEPWFEHAKWSPKCQFVLLAKGPAYVSEVLATTAANASSQPATAPAPTLQADVLMDEAPAKEALALGIDGGVVRNAIQRKLLSSGCAFSTLDELLHDIFDDAGAGAALEVREPPEPSAPFIEPCQATTSKAASVPIPVADSIPAKPQAAEAVANISKITDEIQKMSVATPNGNLSLEEENRQLKDARLCKVCLDEEVGVVFLPCGHLATCNQCAPSVANCPMCRADIKGFVRTFLS [C149G;C249G] | decreasing interaction strength
4 | MTELGMELESVRLATFGEWPLNAPVSAEDLVANGFFATGNWLEAEGHFCHVRIDRWEYGDQVAERHRRSSPICSMVLAPNHCGNVPRSQESDNEGNSVVDSPESCSCPDLLLEANRLVTFKDWPNPNITPQALAKAGFYYLNRLDHVKCVWCNGVIAKWEKNDNAFEEHKRFFPQCPRVQMGPLIEFATGKNLDELGIQPTTLPLRPKYACVDARLRTFTDWPISNIQPASALAQAGLYYQKIGDQVRCFHCNIGLRSWQKEDEPWFEHAKWSPKCQFVLLAKGPAYVSEVLATTAANASSQPATAPAPTLQADVLMDEAPAKEALALGIDGGVVRNAIQRKLLSSGCAFSTLDELLHDIFDDAGAGAALEVREPPEPSAPFIEPCQATTSKAASVPIPVADSIPAKPQAAEAVANISKITDEIQKMSVATPNGNLSLEEENRQLKDARLCKVCLDEEVGVVFLPCGHLATCNQCAPSVANCPMCRADIKGFVRTFLS [C46G] | with no effect
5 | MTELGMELESVRLATFGEWPLNAPVSAEDLVANGFFATGNWLEAECHFCHVRIDRWEYGDQVAERHRRSSPICSMVLAPNHCGNVPRSQESDNEGNSVVDSPESCSCPDLLLEANRLVTFKDWPNPNITPQALAKAGFYYLNRLDHVKGVWCNGVIAKWEKNDNAFEEHKRFFPQCPRVQMGPLIEFATGKNLDELGIQPTTLPLRPKYACVDARLRTFTDWPISNIQPASALAQAGLYYQKIGDQVRCFHCNIGLRSWQKEDEPWFEHAKWSPKCQFVLLAKGPAYVSEVLATTAANASSQPATAPAPTLQADVLMDEAPAKEALALGIDGGVVRNAIQRKLLSSGCAFSTLDELLHDIFDDAGAGAALEVREPPEPSAPFIEPCQATTSKAASVPIPVADSIPAKPQAAEAVANISKITDEIQKMSVATPNGNLSLEEENRQLKDARLCKVCLDEEVGVVFLPCGHLATCNQCAPSVANCPMCRADIKGFVRTFLS [C149G] | decreasing interaction strength
6 | MTELGMELESVRLATFGEWPLNAPVSAEDLVANGFFATGNWLEAECHFCHVRIDRWEYGDQVAERHRRSSPICSMVLAPNHCGNVPRSQESDNEGNSVVDSPESCSCPDLLLEANRLVTFKDWPNPNITPQALAKAGFYYLNRLDHVKCVWCNGVIAKWEKNDNAFEEHKRFFPQCPRVQMGPLIEFATGKNLDELGIQPTTLPLRPKYACVDARLRTFTDWPISNIQPASALAQAGLYYQKIGDQVRGFHCNIGLRSWQKEDEPWFEHAKWSPKCQFVLLAKGPAYVSEVLATTAANASSQPATAPAPTLQADVLMDEAPAKEALALGIDGGVVRNAIQRKLLSSGCAFSTLDELLHDIFDDAGAGAALEVREPPEPSAPFIEPCQATTSKAASVPIPVADSIPAKPQAAEAVANISKITDEIQKMSVATPNGNLSLEEENRQLKDARLCKVCLDEEVGVVFLPCGHLATCNQCAPSVANCPMCRADIKGFVRTFLS [C249G] | with no effect
